Laboratory results: patent US20240101708A1 (Genentech, published 2024)

T1: recombinant human ZNRF3 extracellular domain (human, UniProt Q9ULT6 56-219)
T1 construct: extracellular domain; also called huZNRF3; human ZNRF3 ECD
T1 sequence (looked up): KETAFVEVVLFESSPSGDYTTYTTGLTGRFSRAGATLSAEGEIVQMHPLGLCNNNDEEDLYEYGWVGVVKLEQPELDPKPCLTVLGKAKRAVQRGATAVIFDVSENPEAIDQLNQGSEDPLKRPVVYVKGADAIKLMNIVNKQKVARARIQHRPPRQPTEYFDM

T2: recombinant human RNF43 extracellular domain (human, UniProt Q68DV7 24-197)
T2 construct: extracellular domain; also called huRNF43; human RNF43 ECD
T2 sequence (looked up): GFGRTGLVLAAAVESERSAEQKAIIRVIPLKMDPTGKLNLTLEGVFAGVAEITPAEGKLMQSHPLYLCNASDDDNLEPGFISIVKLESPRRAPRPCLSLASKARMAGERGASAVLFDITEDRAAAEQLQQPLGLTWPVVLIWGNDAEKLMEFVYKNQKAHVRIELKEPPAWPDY

B1: ZNRF3-101 (antibody, V domains shown)
VH: QVQLKESGPGLVQPTQTLSLTCTVSGFSLTSSTVSWVRQPPGKGLEWIAAISSAENTYYNSGLKSRLSISRDTSKSQVFLKMNSLQTEDTAMYFCAGGRILETLFDSWGQGVMVTVSS
VL: DIVLTQSPALAVSLGQRATISCKTNQNVDFYGKTYMHWYQQKRGQQPKLLIYLASNLASGIPARFSGRGSGTDFTLTIDPVATDDTATYYCQQTRSLPPTFGAGTKLELK
notes: Rat clone; VH/VL only
B2: ZNRF3-333 (antibody, V domains shown)
VH: QSLEESGGGLVQPEGSLTLTCTASGIDFSARSYMCWVRQAPGKGLEWVACIYTGSSGSTYYANWAKGRFTISKTSSTTVTLRMTSLTAADTASYFCARGAYVGYGFAAYFTLWGPGTLVTVSS
VL: DIVMTQTPASVEAAVGGTVTINCQASQSISSYLAWYQQKPGQPPKLLIYYASNLESGVPSRFKGSGSGTQFTLTISDLECADAATYYCQAYYSSITGWAFGGGTEVVVK
notes: Rabbit clone; VH/VL only
B3: RNF43-15 (antibody, V domains shown)
VH: QEQLEESGGDLVKPGASLTLTCTASRFSFSNDDVICWVRQAPGKGLEWIGCIATINGNTAYATWAKGRFTSSKTSSTTVTLQMTRLTAADTATYFCARWDTGSEHVTLWGPGTLVTVSS
VL: AYDMTQTPASVEVAVGGTVTIKCQASQSISSYLAWYQQKPGQPPKPLIYEASKLASGVPSRFSGSGSGTQFTLTISGVQCADAATYYCQQGASWSNVDNVFGGGTEVVVK
notes: Rabbit clone; VH/VL only
B4: ZNRF3-171 (antibody, V domains shown)
VH: QVQLHQSGTELARPGTSVKLSCKASGYTFSRFYINWVKKRPGQGLEWIGYIDPGNGGTFHSEKFKDKASLTADTSSSTAYMVLGSLAPEDSAFYFCVRGYYSSYDWFAYWGQGTLVTVSS
VL: DIQLTQSPSSMSASLGDRVSLTCQSSQGIGNYLSWYQHKPGEPPKPILYYATNLADGVPSRFSGSRSGSDYSLTISSLESEDTAIYYCLQYDEYPYTFGPGTKLELR
notes: Rat clone; VH/VL only
B5: RNF43-16 (antibody, V domains shown)
VH: QSVEESGGRLVTPGTPLTLTCTVSGFFLSSYYMSWVRQAPGKGLEWIGYIYAGSGSTYYASWAKGRFTISKTSTTVDLKITSPTTEDTATYFCVRDINGGDYGMDPWGPGTLVTVSS
VL: DIVMTQTPASVSAAVGGTVTIKCQASESIDSGLAWYQQKPGQRPKLLIYAASNLASGVSSRFKGSGSGTEYSLTISGVQCDDAATYYCQCTYGSVTSNTYGIAFGGGTEVVVK
notes: Rabbit clone; VH/VL only
B6: RNF43-128 (antibody, V domains shown)
VH: EVQLQESGPGLVKPSQSLSLTCSVTGFSITSHYKWNWIRKFPRNKLEWMGYIDNSGSTNYIPSLKSRISITRDTSKNQFFLQVNSVTTEDTATYYCARDCLDWGQGVMVTVSS
VL: DVVLTQTPPTLSATIGQSVSISCRSSQSLLHSNGNTYLHWLIQRPGQSPQLLIYLVSRLESGVPNRFSGSGSGTDFSVKISGVEAEDLGIYYCVQDTHTPWTFGGGTKLELK
notes: Rat clone; VH/VL only
B7: ZNRF3-128 (antibody, V domains shown)
VH: EVQLVESGGGLVQPGKSLKLSCSASGFTFSSYGMHWIRQAPGKGLDWVAYISTNSATVYADAVKGRFTISRDNAKNTLYLQLNSLKSEDTAIYYCARSGYTTYMPFTYWGQGTLVTVSS
VL: DVLMTQTPVSLPVSLGGQVSISCRSSQSLVHSDGNTYLHWYLQKPGQSPQLLIYRVSNRFSGVSDRFSGSGSGTDFTLKISRVEPDDLGIYYCLQTTHFLTWTFGGGTKLELK
notes: Rat clone; VH/VL only
B8: ZNRF3-131 (antibody, V domains shown)
VH: EVQVVESGGGLVQPGRSLKVSCAASGFTFSRYGMAWVRQAPTKGLEWVASISTGGENTYYRDSVKGRFTISRDNVKNTLYLQMDSLRSEDTATYYCARHGRVLNYFDYWGQGVMVTVSL
VL: DIQMTQSPASLSASLGETVSIECLTSEDIYTYLAWYQQKPGKSPHLLIFAASRLQDGVPSRFSGSGSGTQYSLKISGMQPEDEGDYFCLQGSKFPYTFGAGTKLDLK
notes: Rat clone; VH/VL only
B9: RNF43-11 (antibody, V domains shown)
VH: QEQLVESGGGLVQPEGSLTLTCKASGFDFSSNVMCWVRQAPGKGLEWIGCIYTGSSGSTYYASWAKGRFTITRSTSLNTVTLQMTSLTAADTATYFCARYVSGGEYYNLWGPGTLVTVSS
VL: ALVMTQTPASVEAAVGGTVTINCQASESISNWLAWYQQKPGQPPKLLIYKASTLASGVSSRFKGSGSGTQFTLTISDLECADAATYYCQQGSSWINIEDVFGGGTEVVVK
notes: Rabbit clone; VH/VL only
B10: RNF43-20 (antibody, V domains shown)
VH: REQLVESGGGLVQPEGSLTLTCKASGFDFSSNVMCWVRQAPGKGLEWIGCIYTGSGSTAYASWAKGRFTITRSTSLNTVTLQMTSLTAADTATYFCARYVSGGEYYNLWGPGTLVTVSS
VL: ALVMTQTPASVEAAVGGTVTIKCQASQSISSYLNWYQQKPGQPPKLLIYKASTLASGVSSRFKGSGSGTQFTLTISDLECADAATYYCQQGSSWNSIENIFGGGTEVVVK
notes: Rabbit clone; VH/VL only
B11: RNF43-17 (antibody, V domains shown)
V domain 1: QSVEESGGRLVTPGTPLTLTCTGSGFSLSNYAMGWVRQAPGKGLEYIGIIYASGSTWYASWAKGRFTISKTSTTVDLKITSPATEDTATYFCCRDATTTYDRLDLWGQGTLITVSS
V domain 2: AFELTQTPSSVEAAVGGTVTIKCQASQSISKWLAWYQQKPGQPPKLLIYRASTLPSGVPSRFKGSGSGTEFTLTISGVECADAATYYCQQGYSVTNLDEAFGGGTEVVVK
notes: Rabbit clone; VH/VL only
B12: ZNRF3-163 (antibody, V domains shown)
VH: EVQLEESGGGLVQPGRSMKFSCAASGFTFSNYYMAWVRQAPSKGLEWVASISTGGGDVYYRDSVKGRFTISRDNAKSTLYLQMDSLRSEDTATYYCARHSGGRIRARGHYFDYWGQGVMVTVSS
VL: DIQMTQSPASLSASLGETVSIECLASEDISNDLAWYQQKSGKSPQVLIYGVSRLQDGVPSRFSGSGSGTRYSLKISGMQPEDEADYFCQQSYKYPYTFGAGTKLELK
notes: Rat clone; VH/VL only
B13: ZNRF3-90 (antibody, V domains shown)
VH: EVQLVESGGGLVQPGRSMKLSCAASGFTFSNYYMAWVRQAPRKGLEWVASITTGGTNTYYRDSVRGRFTISRDNAKSTLYLQMDSLRSEETATYYCARHSGGLIRARGHYFHYWGQGVMVTVSS
VL: DIQMTQSPASLSASLGEIVSIECLASEGISNDLAWYQQKSGKSPQVLVYAASRLQDGVPSRFSGSGSGTRYSLKISGMQPEDEADYFCQQSYTYPYTFGAGTKLELK
notes: Rat clone; VH/VL only
B14: RNF43-2 (antibody, V domains shown)
VH: QSLEESGGDLVKPGASLTLTCTASGFSFSSSYYMCWVRQAPGKGLELIGCGFTGRHYTYYASWAKGRFTISKSSSTTVTLQMTSLTAADTATYFCARKSGSDYDYFDLWGPGTLVTVSS
VL: AYDMTQTPASVEAVVGGTVTIKCQASQSINSWLSWYQQKPGQRPKLLIYRASTLASGVSSRFKGSGSGTEFTLTISDLECADAATYYCQQGYVSSNINNVFGGGTEVVVK
notes: Rabbit clone; VH/VL only
B15: ZNRF3-195 (antibody, V domains shown)
VH: EVQLVESGGGLVQPGNSLNLSCSASGFPFSTYGMHWIRQAPGKGLDWVAYISYNSGTVYADAVKGRFTISRDNAKNTLYLQLNSLKSEDTAIYYCARGYYDGYYRYWGQGVMVTVSS
VL: DIVMTQSPFSLAVSEGEMVTINCKSSQSLLSSGNQKNYLAWYQQRPGQSPKLLIYHASTRQSGVPDRFIGSGSGTDFTLTISDVQAEDLADYYCLQHYSSPTFGSGTKLEIK
notes: Rat clone; VH/VL only
B16: ZNRF3-6 (antibody, V domains shown)
VH: EVQLVESGGGLVPPGKSLKLSCSASGFPFSNYGMHWIRQAPGKGLDWVGYISSNSGTIYADAVKGRFTISRDNAKNTLYLLINSLKSEDTAMYYCARGYFDGYYRFWGQGVMVTVSS
VL: DIVMTQSPFSLAVSEGDMVTIMCRSSQSLLSSGNQKNYLAWYQQKPGQSPKLLIYHASTRQSGVPDRFIGSGSGTDFTLTISDVQAEDLADYYCLQHYSSPTFGSGTKLEIK
notes: Rat clone; VH/VL only
B17: RNF43-5 (antibody, V domains shown)
VH: QSVEESGGRLVTPGTPLTLTCTVSGFSLNTYAMGWVRQAPGKGLEWIGTIGSSGSTYYATWAKGRFTVSKTSTTVDLKITSPTTEDTATYFCVRGADGLNYYPIWGPGTLVTVSL
VL: AQVLTQTPSSVSAAVGGTVTINCQASQSVYNNKNLAWYQQKPGQPPKLLIYDASDLASGVSSRFKGSGSGTQFTLTISGVQCDDAATYYCQGEFNCDKGDCNAFGGGTEVVVK
notes: Rabbit clone; VH/VL only
B18: ZNRF3-117 (antibody, V domains shown)
VH: EIQLQESGPGLVKPSQSLSLTCSVTGYTITSDYDWSWIRKFPGNKMEWMGYINYSGSTNYNPSLKSRISFTRDTSKNQFFLQLNSITTDDTATYYCARYGPYYGFSDWYFDFWGPGTMVTVSS
VL: DVQMTQSPSYLAASPGESVSISCKASQSISNYLAWYQQKPGKTYRLLIYSGSTLQSGTPSRFSGSGSGTDFTLTIRSLEPEDFGLYYCQQYYEKPLTFGSGTKLEIK
notes: Rat clone; VH/VL only

Legend:
[1] = target: T1, recombinant human ZNRF3 extracellular …; assay: SPR Biacore 8K; antibody captured on Protein A; ZNRF3 ECD analyte; 25 C
Procedure: Antibodies were screened for binding to recombinant human RNF43 and ZNRF3 ECDs using a Biacore® 8 k instrument (GE Life Sciences). Briefly, antibodies diluted to 1 μg/ml in 1×HBSP buffer (Cytiva, BR100368) were captured on a Sensor Chip Protein A (GE Life Sciences) using a flow rate of 10 μl/minute and a contact time of 60 seconds. Binding of recombinant human RNF43 and ZNRF3 extracellular domain to the captured antibodies was analyzed at 25° C. using a single cycle kinetics method with a flow rate of 30 μl/minute, a contact time of 180 seconds and a dissociation time of 600 seconds. The concentration of recombinant human RNF43 and ZNRF3 extracellular domain in the single cycle kinetics were 0, 0.8, 4, 20, and 100 nM. Between cycles, the chip was regenerated using 10 mM Glycine HCl pH 1.5 injected for 30 seconds at 30 μl/minute. Data were evaluated using Biacore 8K Evaluation software (GE Life Sciences). Kinetic constants were obtained using a 1:1 binding model with the parameter RI set to zero. Cell surface ligase antibodies with sub-nanomolar affinities may provide advantages in certain instances, for example, in the degradation efficiency which is correlated with the durability of the ternary complex as shown in FIG. 5D.

[2] = target: T2, recombinant human RNF43 extracellular …; assay: SPR Biacore 8K; antibody captured on Protein A; RNF43 ECD analyte; 25 C

Binder | Kd [1] [nM] | also measured
B1 | 0.07 | 
B2 | 8.7 | 
B3 |  | Kd [2]: 8 nM
B4 | 1.01 | 
B5 |  | Kd [2]: 37.8 nM
B6 |  | binding result [2]: no binding
B7 | 3.16 | 
B8 | 2.39 | 
B9 |  | Kd [2]: 27.7 nM
B10 |  | binding result [2]: no binding
B11 |  | Kd [2]: 6.7 nM
B12 | 0.61 | 
B13 | 0.27 | 
B14 |  | binding result [2]: no binding
B15 | 0.27 | 
B16 | 0.12 | 
B17 |  | Kd [2]: 1.1 nM
B18 | 0.2 | 
